This assay deals with G3BP1 NTF2-like domain (human) (UniProt Q13283). In words: fluorescence polarisation.
Chain of G3BP1 NTF2-like domain (human) (Q13283 1-139): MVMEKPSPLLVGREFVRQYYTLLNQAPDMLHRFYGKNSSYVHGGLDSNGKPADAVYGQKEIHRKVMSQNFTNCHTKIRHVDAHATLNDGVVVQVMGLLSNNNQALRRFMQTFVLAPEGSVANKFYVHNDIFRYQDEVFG

The substance “SARS-CoV-2 N wt peptide 12-26 (peptide; other documents disagree on this pair)” returned an IC50 of 8.7 µM.

These data come from article PMC12102759.
